{
  "source": "patent US20240101708A1",
  "about": "(Genentech, published 2024)",
  "molecules": {"B1": {"name": "RNF43-19 (antibody, V domains shown)", "VH": "QQQLEESGGGLVKPGGTLTLTCKASGIDFSTYYYMCWVRQAPGKGLEWIACIYTGDGNTYYASWAKGRFTISKTSSTTVTLQMTSLTAADTATYFCARDLAGSSYYSGYYFKLWGPGTLVTVSS", "VL": "DVVMTQTPASVSEPVGGTVTIKCQASQSIGSNLAWYQQKPGQPPKLLIYSVSNLASGVSSRFKGSRSGTEYTLTISDLECADAATYYSQSGYYGSTYAFGGGTEVVVK"}, "B2": {"name": "ZNRF3-222 (antibody, V domains shown)", "VH": "EVQLVESGGGLVQPGRSLKLSCAVSGFTFSNYGMAWVRQTPTKGLEWVATITYDGSTTYYRDSVKGRFTISRDNAKSALSLQMDSLRSEDTATYHCARQGLGYPFVYWGQGTLVTVSS", "VL": "DVVMTQTPVSLPVSLGGQASISCRTSQSLVHSNGNTYLHWYLQKPGQSPQLLIYRVSNRFSGVPDRFSGSGSGTDFTLKISRIEPEDLGDYYCLQSTHFPYTFGAGTKLELK", "notes": "Rat clone; VH/VL only"}, "B3": {"name": "ZNRF3-322 (antibody, V domains shown)", "VH": "EVHLVESGGGLVQPGRSLTLSCVASGFTFNNWWMTWIRQAPGKGLEWVASISHTGGSTSYPDSVKGRFTISRDNAKSTLYLQMTSLRSDDTATYYCTRWGPILRGFDYWGQGVMVTVSS", "VL": "DVVLTQTPPTLSATIGQSVSISCRSSQSLLHINGNTYVNWLVQRPGQPPQLLFYLVSRLESGVPNRFSGSGSGTDFTLKISGVEAEDLGVYYCVQSTHAPPTFGGGTKLELK", "notes": "Rat clone; VH/VL only"}},
  "key": {"RNF13": {"target": "RNF13", "sequence (transmembrane E3 ubiquitin ligase with N-terminal gD tag, as listed by the source limits assumed)": "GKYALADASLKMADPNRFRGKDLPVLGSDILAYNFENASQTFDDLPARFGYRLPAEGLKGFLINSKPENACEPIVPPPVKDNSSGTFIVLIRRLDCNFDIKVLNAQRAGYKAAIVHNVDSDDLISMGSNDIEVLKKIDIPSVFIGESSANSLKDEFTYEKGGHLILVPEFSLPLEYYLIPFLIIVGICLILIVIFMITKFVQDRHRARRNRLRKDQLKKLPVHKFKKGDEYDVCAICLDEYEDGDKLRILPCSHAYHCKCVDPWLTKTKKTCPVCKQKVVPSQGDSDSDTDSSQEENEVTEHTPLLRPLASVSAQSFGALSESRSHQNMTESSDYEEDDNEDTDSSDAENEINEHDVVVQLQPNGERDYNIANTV", "assay": "flow cytometry of live HT29 cells with stably integrated, doxycycline-induced gD-tagged ligase, stained with anti-gD antibody and APC; Parental HT29 APC-A+ 0.27"}, "RNF128 (GRAIL)": {"target": "RNF128 (GRAIL)", "sequence (transmembrane E3 ubiquitin ligase with N-terminal gD tag, as listed by the source limits assumed)": "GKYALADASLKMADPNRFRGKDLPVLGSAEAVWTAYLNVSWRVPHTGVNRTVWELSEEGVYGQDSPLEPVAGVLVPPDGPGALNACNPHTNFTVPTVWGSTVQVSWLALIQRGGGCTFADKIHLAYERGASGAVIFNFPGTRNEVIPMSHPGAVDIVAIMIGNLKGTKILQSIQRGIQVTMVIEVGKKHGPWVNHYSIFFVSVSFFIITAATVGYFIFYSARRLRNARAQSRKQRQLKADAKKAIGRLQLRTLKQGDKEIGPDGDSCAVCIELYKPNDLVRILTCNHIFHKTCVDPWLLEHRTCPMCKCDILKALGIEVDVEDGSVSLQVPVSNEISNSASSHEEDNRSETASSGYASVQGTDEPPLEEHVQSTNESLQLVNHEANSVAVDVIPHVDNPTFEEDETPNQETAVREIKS", "assay": "flow cytometry of live HT29 cells with stably integrated, doxycycline-induced gD-tagged ligase, stained with anti-gD antibody and APC; Parental HT29 APC-A+ 0.27"}, "RNF43": {"target": "RNF43", "sequence (transmembrane E3 ubiquitin ligase with N-terminal gD tag, as listed by the source limits assumed)": "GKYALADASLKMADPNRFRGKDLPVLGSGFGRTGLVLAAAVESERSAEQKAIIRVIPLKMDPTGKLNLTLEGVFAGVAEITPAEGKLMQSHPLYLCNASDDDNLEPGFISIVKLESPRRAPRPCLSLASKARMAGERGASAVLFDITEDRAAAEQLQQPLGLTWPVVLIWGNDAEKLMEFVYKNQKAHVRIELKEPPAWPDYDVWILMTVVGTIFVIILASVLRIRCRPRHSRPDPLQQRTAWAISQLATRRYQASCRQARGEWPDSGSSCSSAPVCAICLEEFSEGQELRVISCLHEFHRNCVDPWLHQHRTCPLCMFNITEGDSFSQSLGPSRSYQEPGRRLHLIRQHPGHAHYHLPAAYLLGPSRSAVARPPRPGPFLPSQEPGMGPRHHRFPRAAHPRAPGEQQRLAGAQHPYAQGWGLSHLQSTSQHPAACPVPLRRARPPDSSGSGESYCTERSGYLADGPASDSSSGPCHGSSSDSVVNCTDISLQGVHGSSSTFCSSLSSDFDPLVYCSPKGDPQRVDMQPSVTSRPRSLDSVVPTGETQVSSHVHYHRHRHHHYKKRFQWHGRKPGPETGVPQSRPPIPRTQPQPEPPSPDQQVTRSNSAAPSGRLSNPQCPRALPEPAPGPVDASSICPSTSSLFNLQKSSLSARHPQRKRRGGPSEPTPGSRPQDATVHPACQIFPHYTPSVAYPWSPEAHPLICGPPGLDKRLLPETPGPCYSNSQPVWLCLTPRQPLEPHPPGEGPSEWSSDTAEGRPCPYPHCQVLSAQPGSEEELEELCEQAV", "assay": "flow cytometry of live HT29 cells with stably integrated, doxycycline-induced gD-tagged ligase, stained with anti-gD antibody and APC; Parental HT29 APC-A+ 0.27"}, "[1]": {"target": "T1, recombinant human RNF43 extracellular domain (human) (UniProt Q68DV7)", "T1 sequence (looked up)": "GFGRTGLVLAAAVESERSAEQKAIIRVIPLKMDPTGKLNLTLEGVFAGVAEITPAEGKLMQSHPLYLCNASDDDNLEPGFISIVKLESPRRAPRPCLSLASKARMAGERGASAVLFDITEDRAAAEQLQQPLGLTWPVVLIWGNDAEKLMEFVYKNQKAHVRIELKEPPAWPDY", "assay": "SPR Biacore 8K; antibody captured on Protein A; RNF43 ECD analyte; 25 C"}, "[2]": {"target": "T2, recombinant human ZNRF3 extracellular domain (human, UniProt Q9ULT6 56-219)", "T2 construct": "extracellular domain; also called huZNRF3; human ZNRF3 ECD", "T2 sequence (looked up)": "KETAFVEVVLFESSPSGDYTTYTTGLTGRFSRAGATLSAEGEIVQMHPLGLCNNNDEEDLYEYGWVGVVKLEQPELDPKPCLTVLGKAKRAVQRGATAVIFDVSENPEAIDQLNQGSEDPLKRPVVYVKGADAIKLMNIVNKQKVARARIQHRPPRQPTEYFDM", "assay": "SPR Biacore 8K; antibody captured on Protein A; ZNRF3 ECD analyte; 25 C", "description": "Antibodies were screened for binding to recombinant human RNF43 and ZNRF3 ECDs using a Biacore® 8 k instrument (GE Life Sciences). Briefly, antibodies diluted to 1 μg/ml in 1×HBSP buffer (Cytiva, BR100368) were captured on a Sensor Chip Protein A (GE Life Sciences) using a flow rate of 10 μl/minute and a contact time of 60 seconds. Binding of recombinant human RNF43 and ZNRF3 extracellular domain to the captured antibodies was analyzed at 25° C. using a single cycle kinetics method with a flow rate of 30 μl/minute, a contact time of 180 seconds and a dissociation time of 600 seconds. The concentration of recombinant human RNF43 and ZNRF3 extracellular domain in the single cycle kinetics were 0, 0.8, 4, 20, and 100 nM. Between cycles, the chip was regenerated using 10 mM Glycine HCl pH 1.5 injected for 30 seconds at 30 μl/minute. Data were evaluated using Biacore 8K Evaluation software (GE Life Sciences). Kinetic constants were obtained using a 1:1 binding model with the parameter RI set to zero. Cell surface ligase antibodies with sub-nanomolar affinities may provide advantages in certain instances, for example, in the degradation efficiency which is correlated with the durability of the ternary complex as shown in FIG. 5D."}},
  "data": [
    {"molecule": "anti-gD antibody", "values": [
      {"measurement": "APC-A+ (share of cells in the positive gate; percentage by paragraph 258)", "setting": "RNF13", "result": 0.79},
      {"measurement": "APC-A+ (share of cells in the positive gate; percentage by paragraph 258)", "setting": "RNF128 (GRAIL)", "result": 35},
      {"measurement": "APC-A+ (share of cells in the positive gate; percentage by paragraph 258)", "setting": "RNF43", "result": 63}
    ]},
    {"molecule": "B1", "values": [
      {"measurement": "Kd", "setting": "[1]", "result": 34.2, "unit": "nM"}
    ]},
    {"molecule": "B2", "values": [
      {"measurement": "binding result", "setting": "[2]", "result": "no binding"}
    ]},
    {"molecule": "B3", "values": [
      {"measurement": "binding result", "setting": "[2]", "result": "no binding"}
    ]}
  ]
}
